One may read the koff as a measure of how fast the partners let go of each other.

The assay addresses p53_(125–134)/HLA-A24 pMHC, soluble recombinant (human | , UniProt P61769 21-119; P04637 125-134, biotin where the biotinylated pMHC was used (site not stated)). Put plainly: SPR. In general terms: Surface plasmon resonance follows binding to a sensor surface in real time, without labels.

B1: P1C1gl (germline sequence converted P1C1), human IgG1 (antibody, V domains shown)
VH: QVQLQESGPGLVKPSQTLSLTCTVSGGSISSGGYYWSWIRQHPGKGLEWIGYIYYSGSTYYNPSLKSRVTISVDTSKNQFSLKLSSVTAADTAVYYCARENFGAFDHWGQGTLVTVSS
VL: QSVLTQPPSVSGAPGQRVTISCTGSSSNIGADYETHWYQQLPGTAPKLLIYGNTNRPSGVPDRFSGSKSGTSASLAITGLQAEDEADYYCQSYDSNLSAWVFGGGTKLTIL
Take B1: the koff stood at 0.139 s⁻¹.

Values taken from PMC6879612 (2019).
